# Laboratory results taken from patent US20030211995A1, “Methods and formulations for eradicating or alleviating staphylococcal nasal colonization using lysostaphin” (priority 2001, published 2003).
# B1: Proteinase K: protease used at 10 mg/ml to neutralize lysostaphin (protein, UniProt P06873 106-384, looked up)
# Proteinase K: AAQTNAPWGLARISSTSPGTSTYYYDESAGQGSCVYVIDTGIEASHPEFEGRAQMVKTYYYSSRDGNGHGTHCAGTVGSRTYGVAKKTQLFGVKVLDDNGSGQYSTIIAGMDFVASDKNNRNCPKGVVASLSLGGGYSSSVNSAAARLQSSGVMVAVAAGNNNADARNYSPASEPSVCTVGASDRYDRRSSFSNYGSVLDIFGPGTSILSTWIGGSTRSISGTSMATPHVAGLAAYLMTLGKTTAASACRYIADTANKGDLSNIPFGTVNLLAYNNYQA
# Tested on: S. aureus
# Test: Proteinase K neutralization of lysostaphin activity in vitro
# Format: cell-based
# Settings: 10^5 S. aureus in PBS; lysostaphin 10 mcg and/or 10 mg/ml Proteinase K; 20 minutes at room temperature
# Method: Lysostaphin (10 mcg) was added to some samples of 10^5 S. aureus in PBS in the presence or absence of 10 mg/ml Proteinase K. The samples were incubated for 20 minutes at room temperatures and then 100 microliter aliquots were plated on blood agar.
molecule,measurement,value
B1,CFUs Recovered,10^5 CFUs
